According to PMC3907030, “Using phage display selected antibodies to dissect microbiomes for complete de novo genome sequencing of low abundance microbes” (BMC Microbiology, 2013):
Substitutions are numbered along the chain they refer to. Each block holds one binder with its values, some of them ahead of it.

Tests used:
Details in all cases: partners not purified
[1] = target: T1, L. acidophilus S-layer A protein (SlpA), on L. acidophilus ATCC 4356 cells (Lactobacillus acidophilus ATCC 4356, UniProt P35829); test: flow cytometry on cells; scFv culture supernatant (200 μl, unpurified) incubated with 10^6-10^7 washed bacteria in PBS, 1 h at RT; detected with anti-SV5-PE; BD LSRII
T1 construct: the flow cytometry itself was done on whole bacteria; also called S-layer protein A; Surface layer protein A; source: endogenous, on intact L. acidophilus ATCC 4356 cells

[2] = target: T2, L. acidophilus S-layer A protein (SlpA), on L. acidophilus ATCC 832 cells (Lactobacillus acidophilus ATCC 832; …, UniProt P35829); test: as above
T2 construct: the flow cytometry was done on whole bacteria; also called L. acidophilus st; source: endogenous, on intact L. acidophilus ATCC 832 cells

[3] = target: T3, L. acidophilus S-layer A protein (Lactobacillus acidophilus (ATCC 4356; …, UniProt P35829); test: flow cytometry on cells; 200 μl scFv culture supernatant added to 10^6-10^7 washed bacteria in PBS, 1 h at RT; detected with anti-SV5-PE; BD LSRII
T3 construct: S-layer A protein (SlpA) of Lactobacillus acidophilus, Uniprot P35829; band of ~45 kDa; On the bacterial surface in flow cytometry; denatured (SDS, β-mercaptoethanol, boiled) on the blot; The MS search used an L. acidophilus NCFM database; also called SlpA; S-layer protein A
T3 sequence (P35829 25-444): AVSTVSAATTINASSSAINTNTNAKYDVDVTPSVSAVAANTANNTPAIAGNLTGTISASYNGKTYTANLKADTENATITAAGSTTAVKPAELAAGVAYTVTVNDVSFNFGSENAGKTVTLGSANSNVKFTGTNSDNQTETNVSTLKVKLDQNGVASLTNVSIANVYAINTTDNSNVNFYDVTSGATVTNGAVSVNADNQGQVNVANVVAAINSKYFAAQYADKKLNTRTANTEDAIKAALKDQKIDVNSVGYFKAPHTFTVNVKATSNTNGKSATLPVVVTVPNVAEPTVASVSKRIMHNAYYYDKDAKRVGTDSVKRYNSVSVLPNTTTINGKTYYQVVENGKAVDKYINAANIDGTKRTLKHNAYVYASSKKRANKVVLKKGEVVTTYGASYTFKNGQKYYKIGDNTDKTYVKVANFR

T2 sequence (P35829 25-444): as above
T1 sequence (P35829 25-444): as above

B1: α-La1 scFv (scFv, V domains shown)
VH: QVQLQQSGPGLVKPSQTLSLACAISGDSVSSNSAAWNWIRQSPSRGLEWLGRIYYRSKWYNDYAVSVKSRITINPDTSKNQFSLQLNSVTPEDTAVYYCARERYGAFDIWGQGTMVTVSS
VL: SYELTQPPSASGTPGQRVTISCSGSSSNIGSNYVYWYQQLPGTAPKLLIYRNNQRPSGVPDRFSGSKSGTSASLAITGLQAEDEADYYCQSYDSSLSGYVFGTRTKLTVL
notes: residues before the VL; VL of α-La1; linker between VL and VH; VH of α-La1; residues between the VH and the SV5 tag; Expressed from pEP-GFP11 with an N-terminal PelB leader and C-terminal SV5, 6x His and GFP strand 11 tags; limits of VL, linker and VH and the reading of GAHA and AS as vector-derived residues are my surmise; also called anti-La1; α-La scFv; source: …
binding result [1]: binds | binding result [2]: binds

B2: α-La4 scFv (scFv, V domains shown)
VH: B1 VH with T17I, A21T, A35D, I53T, S66L, E102G, R103S, Y104L
VL: QAVVTQEPSASETPGQRVTISCSGSDSNIGSNYVYWYQQVPGTAPKLVIYRNNQRPSGVPDRFSGSKSGTSASLGIRGLQSEDEADYYCAAWDDSVSGWVFGGRTKLTVL
notes: residues before the VL; VL of α-La4; linker between VL and VH; VH of α-La4; residues between the VH and the SV5 tag; Expressed from pEP-GFP11 with an N-terminal PelB leader and C-terminal SV5, 6x His and GFP strand 11 tags; limits of VL, linker and VH and the reading of GAHA and AS as vector-derived residues are my surmise; also called anti-La4; source: E. coli …
binding result [1]: binds | binding result [2]: binds

B3: α-La4 scFv (scFv, V domains shown)
VH: B1 VH with T17I, A21T, A35D, I53T, S66L, E102G, R103S, Y104L
VL: B2 VL
notes: The vector adds an N-terminal PelB leader; source: E. coli BL21 Gold, pEP-GFP11, culture supernatant; not shown: SV5, C-terminal, kept
binding result [3]: binds

The remaining lines, values ahead:

binding result [1]: binds | binding result [2]: binds
B4: α-La3 scFv (scFv, V domains shown)
VH: QVQLQESGPGLVKPSETLSLTCAISGDSVSSNSAAWNWIRQSPSRGLEWLGRTYYRSKWYNDYAVSVKSRITINPDTSKNQFSLQLNSVTPEDTAVYYCATGDAFDMWGQGTMVTVSS
VL: SYVLTQPPSVSGTPGQRVTISCSGSSSNIERNYVYWYQQLPGTAPKLLIYRNNQRPSGVPDRFSGSKSGTSASLAISGLRSEDEADYYCAAWDDSQNAYVFGTGTKLTVL
notes: residues before the VL; VL of α-La3; linker between VL and VH; VH of α-La3; residues between the VH and the SV5 tag; Expressed from pEP-GFP11 with an N-terminal PelB leader and C-terminal SV5, 6x His and GFP strand 11 tags; limits of VL, linker and VH and the reading of GAHA and AS as vector-derived residues are my surmise; also called anti-La3; source: E. coli …

binding result [3]: binds
B5: α-La3 scFv (scFv, V domains shown)
VH: B4 VH
VL: B4 VL
notes: as for B3

binding result [1]: binds
B6: α-La2 scFv (scFv, V domains shown)
VH: EVQLVETGGGLVKPGGSLRLSCAASGFTLSNAWMHWVRQAPGKGLEWVGRIRRKTDGGTTDYAAPVKGRFTISRDDSKNTLYLQMNSLKTEDTAVYYCSTDDYGGNWGQGTLVTVSS
VL: QSVLTQPASVSGSPGQSITISCTGTSSDVGSYNYVSWYQQHPGKAPKLMIYDVSNRPSGVSNRFSGSKSGNTASLTISGLQAEDEADYYCSSYTSSSTNVFGTGTQLTVL
notes: residues before the VL; VL of α-La2; linker between VL and VH; VH of α-La2; residues between the VH and the SV5 tag; Expressed from pEP-GFP11 with an N-terminal PelB leader and C-terminal SV5, 6x His and GFP strand 11 tags; limits of VL, linker and VH and the reading of GAHA and AS as vector-derived residues are my surmise; also called anti-La2; source: E. coli …

binding result [3]: binds
B7: α-La2 scFv (scFv, V domains shown)
VH: B6 VH
VL: B6 VL
notes: The vector adds an N-terminal PelB leader; also called anti-La2; source: E. coli BL21 Gold, pEP-GFP11, culture supernatant; not shown: SV5, C-terminal, kept
